Article PMC10227007

What was measured:
[1] = target: MYC-OsSERL2 (overexpression line MYC-OsSERL2-OE1) (Oryza sativa japonica cv. Zhonghua 11 (ZH11)); test: co-IP; seedlings of COG1-HA-L1/MYC-OsSERL2-OE1 treated at 4 °C for 0, 24 and 48 h; total protein adjusted to equivalent levels of COG1-HA; precipitated with Anti-c-Myc Magnetic Beads, COG1-HA band measured by Image J (0 h = 1.0)
[2] = target: OsSERL2-MYC-cCFP (Oryza sativa japonica cv. Zhonghua 11 (ZH11)); test: split reporter (BiFC, NanoBiT); BiFC in rice protoplasts, nVenus and cCFP fusions co-expressed, YFP fluorescence by confocal microscopy (Leica TCS SP5); in one experiment the protoplasts were kept at 28 °C or 4 °C for 24 h and the intensity measured by Image J

Substance	relative density of the co-precipitated COG1-HA band after 24 h at 4 °C, against 0 h (1.0) (relative to 0 h (1.0)) [1]	relative density of the co-precipitated COG1-HA band after 48 h at 4 °C, against 0 h (1.0) (relative to 0 h (1.0)) [1]	BiFC fluorescence intensity at 4 °C for 24 h, relative to 28 °C (1.0) (relative to 28 °C (1.0)) [2]
COG1-HA (from the COG1::COG1-HA transgene, line COG1-HA-L1) (receptor)	4.7	5.8	–
COG1-HA-nVenus (receptor)	–	–	4.1
